The record followed here is the nanobody polyreactivity screen of Harvey et al. (2022).

The data set in a line: yeast display, Sf9 membrane polyspecificity reagent, FACS + sequencing; frameworks hold sequencing errors. In short, it runs like this:
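After 36–48 hours of galactose induction, yeast (Saccharomyces cerevisiae BJ5465) displaying a synthetic nanobody library were stained at 4 °C for 1 hour with 10% biotinylated, detergent-solubilized Sf9 membrane reagent. Streptavidin microbeads enriched the stained cells before FACS sorting into low and high (top ~1%) gates on anti-HA and streptavidin fluorescence. Each clone's polyreactivity label reflects its gate of origin.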
For the sequence “QVQLVESGGGLVQAGGSLRLSCAASGFTFSYYAMGWSRPEPGKERELVAAISSSASRTYYAESVKGRFTISRDNAKNTVYFQMNSLKPEDTAVYYCAARYSESRTRHLDYWGQGTQVTVSS”, the “polyreactivity (PSR sort gate)” value is “high polyreactivity”.
Consider “QVQLVESGGGLVQAGGSLRLSCAASGFTFSYYAMGWYRQAPGKERELVAAISSGGSTNYADSVKGRFTISRDNAKNTVYLQMNSLKPEVTAVYYCNVRLYYPTYASMEYWGQGTQVTVSS”, for which the “polyreactivity (PSR sort gate)” value was “low polyreactivity”.
Under “QVQLVESGGGLVQAGGSLRLSCAASGFTFSYYAMGWYRQAPGKERELVASISRSGNTYYADSVKGRFTISRDNAKNTVYLQMNSLKPEDTAVYYCNARRHYRRYSYRHNYWGQGTQVTVSS” stands “high polyreactivity”; under “QVQLVESGGGLVQAGGSLRLSCAASGFTFTAYAMGWYRQAPGKERELVAAINWSGSRTYYADSVKGRFTISRDNAKNTVYLQMNSLIPEDSAVYYCNTATSKSSYRHYDYWGQGTQVTVSS”, “high polyreactivity”; under “QVQLVESGGGLVQAGGSLRLSCAASGFTFTGNAMGWYRQAPGKERELVAAITSGTSTYYADSVKGRFTISRDNAKNTVYLQMNSLKPEDTAVYYCAKEYPLDGRGSDYCGQGTQVTVSS”, “low polyreactivity”.
For “QVQLVESGGGLVQAGGSLRLSCAASGFTFTKYDMGWYRQAPGKETELVAVITWSGGSTYYADSVKGRFTISRDNAKNTVYLQMNSLKPEDTAVYYCNAEAPRYTYGRMDYWGQGTQVTVSS” the value was “low polyreactivity”; for “QVQLVESGGGLVQAGGSLRLSCAASGFTFTPNAMGSYRQAPGKERELVAAITSGGNTYADSVKGRFTISRDNAKNTVYLQMNSLKPEDTAVYYCAKGEGYWYIARYLPVGYGYWGQGTQVTVSS”, “low polyreactivity”; for “QVQLVESGGGLVQAGGSLRLSCAASGFTFTPNAMGWYRQAPGKERELVAITWSDGNTYYADSVKGRFTISRDNAKNTVYLQMNSLKPEDTAVYYCNADSTQGAWWPWLNDYWGQGTQVTVSS”, “high polyreactivity”.
Under “QVQLVESGGGLVQAGGSLRLSCAASGFTFTQYGMGWYRQAPGKEREFVATIRFSGDNTYYADSVKGRFTISRDNAKNTVYLQMNSLKPEDTAVYYCNADNRAFFVYPVSKRYDSWGQGTQVTVSS” stands “low polyreactivity”; under “QVQLVESGGGLVQAGGSLRLSCAASGFTFTRNAMGWYRQAPGKERELVAAISSSAGSTSYADSVKGRFTISRDNAKNTVYLQMNSLKPEDTAVYYCAKSYRSSRRYNYWGQGTQVTVSS”, “high polyreactivity”; under “QVQLVESGGGLVQAGGSLRLSCAASGFTFTRYAMGWYRPAPGKERELVAAISWNGGSMYYADSVKGRFTISRDNAKNTVYLQMNSLKPEDTAVYYCAVRFKYQWSKFGYWGQGTQVTVSS”, “high polyreactivity”.
Consider “QVQLVESGGGLVQAGGSLRLSCAASGFTFTRYTMGWYRQAPGKERELVAAITSGGRTNYADSVKGRFTISRDNAKNTVYLQMNSLKPEDTAVYYCAARYVYYWAYGNEYWGHGTQVTVSS”, for which the “polyreactivity (PSR sort gate)” value is “high polyreactivity”.
On to “QVQLVESGGGLVQAGGSLRLSCAASGFTFTSNVMGWYREAPGKEWELVADISASDGRTYYADSVKGRFTISRDNAKNTVYLQMNSLKREDTAVYYCNVSSRRLRGLDYWGQGTQVTVSS”, for which the “polyreactivity (PSR sort gate)” value is given as “low polyreactivity”.
For “QVQLVESGGGLVQAGGSLRLSCAASGFTFTSYAMGWYRQAPGKEREFVAAIRRSGSGTYYADSVKGRFTISRDNAKNNVYLQMNSLKPEDTAVYYCAFVPPRLYYHYDYWGQGTQVTVSS” the value was “high polyreactivity”.
Under “QVQLVESGGGLVQAGGSLRLSCAASGFTFTSYAMGWYRQAPGKERELVAAITVTGGRTYYADSVKGRFTISRDNAKNTVYLQMNSLKPEDTAVYYCATVFSLSSPYWKHYYWGQGTQVTVSS” stands “high polyreactivity”; under “QVQLVESGGGLVQAGGSLRLSCAASGFTFTTYDMGWYRQAPGKERELVAAINSGGSTNYADSVKGRFTISRDNAKNTVYLQMNSLKPEDTAVYYCAAEFYWYYNNFFEDRYYWGQGTQVTVSS”, “low polyreactivity”.
As for “QVQLVESGGGLVQAGGSLRLSCAASGFTFTYYAMGSYRQAPGKERELVAAITSRGGTTYYADSVKGRFTISRDNAKNTVYLQMNSLKPEDTAVYYCNARHSYWTGRRVTDDYDYWGQGTQVTVSS”, the “polyreactivity (PSR sort gate)” value is listed as “high polyreactivity”.
Under “QVQLVESGGGLVQAGGSLRLSCAASGFTFTYYAMGWYRQAPGKERELVAAITRRGGRTYYADSVKGRFTISRDNAKNTVYLQMNSLKPEDTAVYYCNADEYGGSTGRKGRYNYWGQGTQVTVSS” stands “low polyreactivity”; under “QVQLVESGGGLVQAGGSLRLSCAASGFTFTYYAMGWYRQAPGKERELVAVISSAGSTYNADSVKGRFTISRDNAKNTVYLQMNSLKPEDTAVYYCNAVGRYYSSGRYGHWGQGTQVTVSS”, “high polyreactivity”; under “QVQLVESGGGLVQAGGSLRLSCAASGFTFTYYDMGWYRQAPGKERELDAAISWSGDYTYYADSVKGRFTISRDNAKNTVYLQMNSLKPEDTAVYYCAALWDVRGYWSSGGYYWGQGTQVTVSS”, “high polyreactivity”.
Under “QVQLVESGGGLVQAGGSLRLSCAASGFTFTYYDMGWYRQAPGKERELVAAISRSGGRTYYADSVKGRFTISRDNAKNTVYLQMNSLKPEDTAVYYCAARRVDTRVHVRYRYYYWGQGTQVTVSS” stands “high polyreactivity”; under “QVQLVESGGGLVQAGGSLRLSCAASGFTFTYYVMGWYRQAPGKERELVAAITSSGGRTYYADSVKGRFTISRDNAKNTVYLQMNSLKPEDTAVYYCNKGPLPGYDYWGQGTQVTVSS”, “high polyreactivity”.
On to “QVQLVESGGGLVQAGGSLRLSCAASGFTFVAYAMGWYRQAPGKERELVAAISKSGGSTYYADSVKGRFTISRDNAKNSVYLQMNRLKPEDTAVYYCAARYYAYRSDYWGQGTQVTVSS”, for which the “polyreactivity (PSR sort gate)” value is recorded as “high polyreactivity”.
Under “QVQLVESGGGLVQAGGSLRLSCAASGFTFVDNAMGWYRQAPGKERELVAVIDFNDGTTYYADSVKGRFTISRDNAKNTVYLLMNSLKPEDTEVYYCNVDSSLILWVEYDYWGQGTQVTVSS” stands “low polyreactivity”; under “QVQLVESGGGLVQAGGSLRLSCAASGFTFVFYAMGWYRQAPGKERELVAAINSGGSTYYADSVKGRFTISRDIAKNTDYLQMNSLKPEDTAVYYCAKGSYGPSAGYGRRYYYWGQGTQVTVSS”, “high polyreactivity”; under “QVQLVESGGGLVQAGGSLRLSCAASGFTFVIHDMGWYRQAPGKERELVADITSGGDTYYADSVKGRFTISRDNAKNTVYLQMNSQKPEDTAVYYCAADIYPDWIYLLYGYWGQGTQGTVSS”, “low polyreactivity”.
For “QVQLVESGGGLVQAGGSLRLSCAASGFTFVINYMGWYRQAPGKERELVADITSGGDTYYADSVKGRFTISRDNAKNTVYLQMNSLNPEDTAVYYCAADIYPDWIYLLYGYWGQVTQVTVSS” the value was “low polyreactivity”.
Under “QVQLVESGGGLVQAGGSLRLSCAASGFTFVNYAMGWYRQAPGKERELVAAISSGGRTYYADSVKGRFTISRDNAKNTVYLQMNSLKPEDTAVYYCAARYKGRAIWMDYWGQGTQVTVSS” stands “high polyreactivity”; under “QVQLVESGGGLVQAGGSLRLSCAASGFTFVNYARGWYRQAPGKERELVAAIRRSGSRTYYADSVKGRFTISRDNAKNTVYLQMHSLKPEDTAVYYCAAVWYRLYGYWGQGTQVTVSS”, “low polyreactivity”; under “QVQLVESGGGLVQAGGSLRLSCAASGFTFVPYARGWYRQAPGKDREWVAAISRRGGSTYYADSVKGRFTISRDYAKNTVYLQMNSLKPEDTAVYYCAKDGPGGGTRIYDYWGQGTQVTVSS”, “high polyreactivity”.
